Results from US6653127B1, “Single-chain recombinant complexes of hepatitis C virus NS3 protease and NS4A cofactor peptide” (Schering Corporation, priority 1997, dated 2003).

Legend:
[1] = test system: double stranded RNA substrate; test: Nucleic acid unwinding activity, scintillation proximity assay; format: biochemical
Protocol: The newly engineered single-chain recombinant His-NS4A21-32-GSGS-NS33-631 (SEQ ID NO: 4) was assayed for nucleic acid unwinding activity using a scintillation proximity assay (SPA, Amersham Life Science Inc., Arlington Height, Ill.). The unwinding activity present in this covalent His-NS4A21-32-GSGS-NS33-631 complex was compared with that of the full length His-NS31-631-NS4A1-54 complex under their corresponding optimal buffer conditions. The double stranded RNA substrate (Oligos, Etc., Inc. Wilsonville, Oreg.) used in the assay contained a template 5′-GCUCGCCCGGGGAUCCUCUAGGAAUACACGUUCGAU-3′ (SEQ ID NO: 121) annealed to a primer 5′-CUAGAGGAUCCCCGGGCGAGCCCUAUAGUGAGUCGU-3′ (complementary sequences of the template and the primer are underlined). This substrate is end-labeled with ^33P using T4 polynucleotide kinase.
The assay conditions for the covalent His-NS4A21-32-GSGS-NS33-631 complex were 100 mM MOPS [pH 7.0], 0.5 mM MgCl2, 2 mM ATP, 0.5 mM DTT, […] BSA, 2% dimethylsulfoxide (DMSO) and 1 U RNase inhibitor (5 prime→3 prime, Inc., Boulder, Colo.). For the full length His-NS31-631/NS4A1-54 complex, the assay conditions were 100 mM PIPES [pH 6.0], 1 mM MgCl2, 2 mM ATP, 0.6 mM DTT, […] BSA and 1 U RNase inhibitor. In both reactions, 0.5 nM double stranded RNA substrate in a final volume of […] was used. The reaction was carried out at 37 ∞C. for 1 h and terminated by an addition of […] of 0.5 M EDTA. The released primer was captured using […] of 100 nM biotinylated capture oligomer (5′-biotin-GCT-CGC-CCG-GGG-ATC-CTC-TAG-3′) (Gibco/BRL, Grand Island, N.Y.) (SEQ ID NO: 123) in 2×hybridization buffer (40 mM HEPES [pH 7.3], 2M NaCl, 2 mg/ml BSA) at 37 ∞C. for 1 h. The primer-oligomer complex was retained by Streptavidin coated SPA beads (SPA, Amersham Life Science Inc., Arlington Height, Ill.), filtered and washed thoroughly with wash buffer (20 mM HEPES [pH 7.3], 15 mM NaCl, 1.5 mM sodium citrate and 0.05% SDS). The amount of the released labeled primer was quantified using a TopCount reader (Packard A991200, Meriden, Conn.).

[2] = ATPase activity, [a-32P]ATP hydrolysis by thin layer chromatography; format: biochemical
Protocol: ATPase activity of the covalent His-NS4A21-32-GSGS-NS33-631 complex (SEQ ID NO: 4) was monitored by direct measurement of [a-^32P]ATP hydrolysis using thin layer chromatography. The enzyme was incubated with 1 mM ATP mixed with [a-^32P]ATP (3000 Ci/mmol, approximately 0.5 mCi per reaction) in a reaction buffer containing 50 mM HEPES [pH 7.3], 10 mM KCl, 0.5 mM DTT, […] bovine serum albumin, fraction V (BSA), 1 mM MgCl2 in the presence or absence of 1 mM polyuridylic acid (poly U) (Pharmacia, Piscataway, N.J.) in a final volume of […]. The reaction was carried out at 37 ∞C. for 1 h and terminated by an addition of […] of 0.5 M EDTA. Half a microliter of the reaction mix was spotted onto a polyethyleneimine-cellulose sheet (SA Scientific Adsorbents Inc., Atlanta, Ga.) and developed by ascending chromatography in 0.375 M potassium phosphate buffer [pH 3.5]. The cellulose sheet was dried and quantified with a Storm 860 PhosphoImager (Molecular Dynamics, Sunnyvale, Calif.).

[3] = target: T1, helicase domain of the NS3 protein (Hepatitis C virus genotype 1b, UniProt P26663, A1092G/F1173S/K1113A/P1112Q); test: Autocleavage observed during purification; set-up: species or system HCV
T1 construct: N-terminal end of the NS3 protease (NS3 amino acids 3-631) via the linker GSGS; histidine tag followed by a thrombin site (N); made in house; host or cells: E. coli BL21(DE3)
Text: Also provided are NS4A-tethered forms of NS3 full-length domain. […] To prevent autocleavage of the full-length covalent complexes, the catalytic serine residue at position 139 is mutated to alanine. The amino acid sequence of one such embodiment is defined by SEQ ID NO: 15. The mutation of the full length constructs at position 139 can also be made in the NS4A-tethered forms of the NS3 catalytic domain, and can be made in combination with any of the aforementioned mutations to increase solubility and stability while preventing autocleavage. Representative embodiments are set forth in SEQ ID NOs: 5-8, 15-18 and 20.

B1: His-NS4A21-32-GSGS-NS33-631: NS4A 21-32 tethered by GSGS to full-length NS3 residues 3-631, His tag; printed SEQ ID NO: 4 (protein)
chain: MGSSHHHHHHSSGLVPRGSHMGSVVIVGRIILSGSGSITAYSQQTRGLLGCKKTSLTGRDKNQVEGEVQVVSTATQSFLATCVNGVCWTVYHGAGSKTLAGPKGPITQMYTNVDQDLVGWQAPPGARSLTPCTCGSSDLYLVTRHADVIPVRRRGDSRGSLLSPRPVSYLKGSSGGPLLCPSGHAVGIFRAAVCTRGVAKAVDFVPVESMETTMRS
modifications: His tag
In the case of B1, the “fold less complex required for similar percentage of unwound products vs full length His-NS31-631/NS4A1-54” value [1] is reported as 10 fold, the “nucleic acid unwinding activity” value ([1]; FIG. 6, 37 C, 1 h, 0.5 nM dsRNA) is reported as “proportional to the concentration of enzyme” and the “product released, fold more than equivalent concentration of full length His-NS3/NS4A1-54 complex” value ([1]; linear range of the assay, 1-10 pM enzyme) is reported as 5-6 fold. For the same molecule, the “increase of ATP hydrolysis in the presence of poly U” value ([2]; 1 mM poly U, all enzyme concentrations examined) was 8-13 fold, the ATPase activity ([2]; FIG. 7, 1 mM ATP, 37 C, 1 h) was “poly U dependent ATPase activity which was proportional to the concentration of the enzyme” and the “ATP hydrolysis in the absence of poly U” value ([2]; no poly U) was “minimal”. For the same molecule, the “autocleavage in the helicase domain during purification” value [3] was “a considerable amount of autocleavage”.
